Laboratory results taken from publication PMC5986199.

Biological target: α-NAC subunit of C. elegans NAC (C. elegans)
Test: cross-linking; BS3 (d0/d4) at 20- or 50-fold molar excess, 20 uM NAC alone or + 20 uM substrate, 10 mM sodium phosphate pH 7.0, room temperature 1 h; SDS-PAGE, in-gel tryptic digest, LC-MS/MS

B1: β-NAC subunit of C. elegans NAC (natural protein)
chain: MDSKAIAERIKKLQAQQEHVRIGGKGTPRRKKKVIHKTAAADDKKLQSNLKKLSVTNIPGIEEVNMIKDDGTVIHFNNPKVQTSVPANTFSVTGSADNKQITEMLPGILNQLGPESLTHLKKLANNVTKLGPDGKGEDEDVPELVGDFDAASKNETKADEQ
- stoichiometry N: 1
